Reference: patent US20190322748A1 (Hoffmann-La Roche, published 2019)
Where “and” joins values, the source holds several entries; their conditions need not be identical. Equal values may be shown once. Read-outs that look alike come from different tables or passages of the source.

Key:
[1] = molecular target: T1, full-length human PD1 on cells (CHO-K1 stably transfected with plasmid 15311_hPD1-fl_pUC_Neo) (human, UniProt Q15116 25-288); test: cell-based or functional assay
[2] = molecular target: T2, biotinylated PD1-ECD-AviHis (human, UniProt Q15116 25-170, biotinylated, site not stated); test: ELISA on coated biotinylated PD1-ECD-AviHis
T2 construct: also called huPD1; hu PD1

[3] = molecular target: T3, biotinylated TIM3-ECD-AviHis (human, UniProt Q8TDQ0 22-202, biotinylated, site not stated); test: ELISA on coated biotinylated TIM3-ECD-AviHis
T3 construct: also called huTIM3; Hu TIM3

human PD1-ECD [4] = molecular target: T4, human PD1-ECD (human, UniProt Q15116 25-170); test: SPR Biacore T200, Ab captured on anti-human Fc IgG, hu PD1-ECD in solution, 25 C
T4 construct: SPR analyte; also called hu PD1-ECD

monomeric human Tim3-ECD [5] = molecular target: T5, monomeric human Tim3-ECD (human, UniProt Q8TDQ0 22-202); test: SPR Biacore T200, Ab captured on anti-human Fab IgG, hu Tim3-ECD in solution, 25 C
T5 construct: SPR analyte; also called huTim3; hu Tim3-ECD

[6] = molecular target: T6, PD1-SNAP (on transiently transfected HEK293 cells) (human, SNAP-tag labelled with SNAP-Lumi4-Tb); test: cell-based TR-FRET on SNAP-tagged PD1 / CLIP-tagged TIM3 HEK293 cells, 1 h at 4 C; half-maximal FRET, i.e. simultaneous binding of both receptors, not of one arm alone
T6 construct: also called SNAP-tagged PD1

[7] = molecular target: T7, Tim3-CLIP (on transiently transfected HEK293 cells) (human, CLIP-tag labelled with Clip-Red); test: as above
T7 construct: The plasmid encodes residues 1-202 including the signal peptide; also called CLIP-tagged TIM3

monomeric cyno Tim3-ECD = molecular target: T8, monomeric cyno Tim3-ECD (cynomolgus, UniProt A0A2K5U3G7 22-195); test: SPR BIAcore B4000, Ab captured on anti-mouse IgG, 25 C
T8 construct: extracellular domain; also called cyTim3; cynomolgus Tim3
T8 sequence: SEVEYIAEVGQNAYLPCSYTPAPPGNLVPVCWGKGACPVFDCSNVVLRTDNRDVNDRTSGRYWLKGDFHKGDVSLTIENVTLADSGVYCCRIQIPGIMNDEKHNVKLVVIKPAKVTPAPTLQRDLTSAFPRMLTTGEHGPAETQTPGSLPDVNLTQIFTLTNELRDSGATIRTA

Tim3-ECD-His-Biotin [8] = molecular target: T9, Tim3-ECD-His-Biotin (human, UniProt Q8TDQ0 22-202, biotinylated with BirA Ligase, site not stated); test: ELISA on human Tim3
T9 construct: also called human Tim3 (ELISA); Biochem Human

[9] = molecular target: T10, full-length human Tim3 on cells (CHO-K1 stably transfected with plasmid 15312_hTIM3-fl_pUC_Neo) (human, UniProt Q8TDQ0 22-301); test: cellular ELISA on CHO-TIM3
T10 construct: Also used as the target of the MLR read-outs (native TIM-3); also called CHO-Tim3; CHO-TIM3

monomeric human Tim3-ECD [10] = molecular target: T5, monomeric human Tim3-ECD; test: SPR, Ab captured, monomer Tim3
[11] = molecular target: T11, huFc fused dimeric human Tim3-ECD (human, UniProt Q8TDQ0 22-202); test: SPR, Ab captured, dimer Tim3 (avidity)
T11 construct: also called huTim3Fc; Fc-tagged human Tim3-ECD dimer

Tim3-ECD-His-Biotin [12] = molecular target: T9, Tim3-ECD-His-Biotin; test: ELISA on streptavidin-captured Tim3-ECD-His-Biotin
[13] = molecular target: T10, full-length human Tim3 on cells (CHO-K1 …); test: cell ELISA on CHO-K1 cells with full-length human Tim3
monomeric human Tim3-ECD [14] = molecular target: T5, monomeric human Tim3-ECD; test: SPR BIAcore B4000, Ab captured on anti-mouse IgG, 25 C
Tim3-ECD-His-Biotin [15] = molecular target: T9, Tim3-ECD-His-Biotin; test: ELISA on human Tim3 (values in relation to the samples max value)
[16] = molecular target: T10, full-length human Tim3 on cells (CHO-K1 …); test: cellular ELISA on CHO-TIM3 (values in relation to the samples max value)
[17] = molecular target: T11, huFc fused dimeric human Tim3-ECD; test: SPR BIAcore B4000, Ab captured on anti-mouse IgG, 25 C, dimeric antigen (avidity)
[18] = molecular target: T10, full-length human Tim3 on cells (CHO-K1 …); test: cell-based or functional assay
[19] = molecular target: T10, full-length human Tim3 on cells (CHO-K1 …); test: cell-based or functional assay; remark: listed apart in the source
[20] = molecular target: T1, full-length human PD1 on cells (CHO-K1 …); test: cell-based or functional assay; remark: listed apart in the source
[21] = molecular target: T1, full-length human PD1 on cells (CHO-K1 …); test: cell-based or functional assay; remark: listed apart in the source
[22] = molecular target: T1, full-length human PD1 on cells (CHO-K1 …); test: cell-based or functional assay; remark: listed apart in the source
[23] = molecular target: T2, biotinylated PD1-ECD-AviHis; test: ELISA on coated biotinylated PD1-ECD-AviHis; remark: listed apart in the source
human PD1-ECD [24] = molecular target: T4, human PD1-ECD; test: SPR Biacore T200, Ab captured on anti-human IgG, 25 C
[25] = molecular target: T7, Tim3-CLIP (on transiently transfected …); test: cell-based TR-FRET on SNAP-tagged PD1 / CLIP-tagged TIM3 HEK293 cells, 1 h at 4 C; signal needs both receptors bound at once
human PD1-ECD [26] = molecular target: T4, human PD1-ECD; test: SPR; row head 'Affinity KD 37°C [nM] *)', first of two values, footnote not explained; first of the two values in the cell; row head KD 37°C, footnote *) not given
[27] = molecular target: T2, biotinylated PD1-ECD-AviHis; test: ligand replacing ELISA on coated PD1-ECD-AviHis; row head 'IC50 PD-L1, 2', competitor not told apart; blocking of ligand binding; head says 'PD-L1, 2', competitor not told apart
human PD1-ECD [28] = molecular target: T4, human PD1-ECD; test: SPR; row head 'Affinity KD 37°C [nM] *)', second of two values (equals the 25 C value of Table 9); second of the two values in the cell; footnote *) not given, so the difference from the first value is not told

B1: 1+1 PD1TIM3_0168 (based on chimeric PD1-0103 / Tim3-0018) (bispecific antibody, human IgG1, kappa, L234A L235A)
heavy 1: not shown
heavy 2: QVTLKESGPGILQPSQTLSLTCSFSGFSLSTSGMSVGWIRQPSGKGLEWLAHIWLNDDVFFNPALKRRLTISKDTSNNQVFLQIASVVTADTATYYCVRANGYLYALDYWGQGISVTVSSASTKGPSVFPLAPSSKSTSGGTAALGCLVEDYFPEPVTVSWNSGALTSGVHTFPAVLQSSGLYSLSSVVTVPSSSLGTQTYICNVNHKPSNTKVDEKVEPKSCDKTHTCPPCPAPEAAGGPSVFLFPPKPKDTLMISRTPEVTCVVVDVSHEDPEVKFNWYVDGVEVHNAKTKPREEQYNSTYRVVSVLTVLHQDWLNGKEYKCKVSNKALGAPIEKTISKAKGQPREPQVCTLPPSRDELTKNQVSLSCAVKGFYPSDIAVEWESNGQPENNYKTTPPVLDSDGSFFLVSKLTVDKSRWQQGNVFSCSVMHEALHNRFTQKSLSLSPGK
light 1: EVILVESGGGLVKPGGSLKLSCAASGFSFSSYTMSWVRQTPEKRLDWVATISGGGRDIYYPDSVKGRFTISRDNAKNTLYLEMSSLMSEDTALYYCVLLTGRVYFALDSWGQGTSVTVSSASVAAPSVFIFPPSDEQLKSGTASVVCLLNNFYPREAKVQWKVDNALQSGNSQESVTEQDSKDSTYSLSSTLTLSKADYEKHKVYACEVTHQGLSSPVTKSFNRGEC
light 2: QIVLTQSPAIMSASPGQKVTITCSASSSVNYTQWYQQKLGSSPKLWIYDAFKLAPGVPARFSGSGTGTSYSLTISSMEAEDAASYFCHQWSSYPWTFGGGTKLEIKRTVAAPSVFIFPPSDRKLKSGTASVVCLLNNFYPREAKVQWKVDNALQSGNSQESVTEQDSKDSTYSLSSTLTLSKADYEKHKVYACEVTHQGLSSPVTKSFNRGEC
notes: 1+1 CrossMAb Vh-VL: HC1/LC1 form the crossed PD1 arm, HC2/LC2 the TIM3 arm; knobs into holes
With B1 the “EC50 of IFN-gamma secretion in MLR, donors D2 + D6” value (shortened to “EC50 … donors D2 + D6”) [1] was 4.3 nM, the EC50 [2] was 0.11 nM and the EC50 [3] was 0.41 nM. For the same binder, the Kd (human PD1-ECD [4]) was 1.2 nM, the Kd (monomeric human Tim3-ECD [5]) was 10.3 nM and the “EC50 (read off the curve)” value [6] was ~0.7 nM. The “EC50 (read off the curve)” value [7] was ~0.7 nM.

B2: Tim3_0022 (antibody, V domains shown)
VH: EVQLQESGPSLVKPSQTLSLTCSVTGDSIASAYWNWIRKFPGNKLEYMGYINYSGSTYYNPSLKSRISITRDTSQNQYYLQLNSVTTEDTATYYCVTGDYFDYWGRGTTLTVSS
VL: DIQMTQSPSSLSAYLGGKVTITCKARQDVRKNIGWYQHKPGKGPRLLIWYTSTLQSGIPSRFSGSGSGRDYSFNINNLEPEDIATYYCLQYDNLPFTFGTGTKLEIR
B2 was tested, and the Kd (monomeric cyno Tim3-ECD) was 28.4 nM.

B3: Tim3_0016 variant (0018) (antibody, V domains shown)
VH: QVTLKESGPGILQPSQTLSLTCSFSGFSLSTSGMSVGWIRQPSGKGLEWLAHIWLNDDVFFNPALKRRLTISKDTSNNQVFLQIASVVTADTATYYCVRANGYLYALDYWGQGISVTVSS
VL: QIVLTQSPAIMSASPGQKVTITCSASSSVNYTQWYQQKLGSSPKLWIYDAFKLAPGVPARFSGSGTGTSYSLTISSMEAEDAASYFCHQWSSYPWTFGGGTKLEIK
notes: Mouse monoclonal antibody; also called Tim3_0018; Tim3 0018
B3 showed an Inflexion point (Tim3-ECD-His-Biotin [8]) of 15.3 ng/mL, an Inflexion point [9] of 29.4 ng/mL and a Kd (monomeric human Tim3-ECD [10]) of 3.4 nM. For the same binder, the Kd [11] was 1.1 nM, the EC50 (Tim3-ECD-His-Biotin [12]) was 0.56 nM and 0.094 µg/mL and the EC50 [13] was 0.52 nM and 0.087 µg/mL. It also gave a Kd (monomeric human Tim3-ECD [14]) of 3.4 nM, an EC50 (Tim3-ECD-His-Biotin [15]) of 0.0151 µg/mL and an EC50 [16] of 0.0264 µg/mL. The Kd [17] was 1.11 nM.

B4: Chimeric TIM3-0016 variant (0018) (antibody, human IgG1, V domains shown)
VH: QVTLKESGPGILQPSQTLSLTCSFSGFSLSTSGMSVGWIRQPSGKGLEWLAHIWLNDDVFFNPALKRRLTISKDTSNNQVFLQIASVVTADTATYYCVRANGYLYALDYWGQGISVTVSS
VL: QIVLTQSPAIMSASPGQKVTITCSASSSVNYTQWYQQKLGSSPKLWIYDAFKLAPGVPARFSGSGTGTSYSLTISSMEAEDAASYFCHQWSSYPWTFGGGTKLEIK
notes: also called Chimeric TIM3-0018
With B4 the “EC50 of IFN-g secretion/release in MLR, donors D1 + D5, with 0.1 µg/ml anti-PD1 mAb” value [18] was 4.2 nM, the “EC50 of IFN-g secretion/release in MLR, donors D2 + D3, with 0.1 µg/ml anti-PD1 mAb” value [18] was 3.1 nM and the “EC50 … donors D2 + D6” value [19] was > 274 nM. The binding result [2] was “no binding” and the EC50 [3] was 0.15 nM.

B5: chimeric PD1-0103 (antibody, human IgG1, V domains shown)
VH: EVILVESGGGLVKPGGSLKLSCAASGFSFSSYTMSWVRQTPEKRLDWVATISGGGRDIYYPDSVKGRFTISRDNAKNTLYLEMSSLMSEDTALYYCVLLTGRVYFALDSWGQGTSVTVSS
VL: KIVLTQSPASLPVSLGQRATISCRASESVDTSDNSFIHWYQQRPGQSPKLLIYRSSTLESGVPARFSGSGSRTDFTLTIDPVEADDVATYYCQQNYDVPWTFGGGTKLEIK
B5 was tested, and the “EC50 … donors D2 + D6” value [1] was 7.7 nM, the “EC50 … donors D2 + D6” value [20] was 6.5 nM and the “EC50 … donors D2 + D6” value [21] was 6 nM. The “EC50 of IFN-gamma secretion in MLR, donors D1 + D3” value [22] was 5.7 nM, the “EC50 of IFN-gamma secretion in MLR, donors D2 + D4” value [22] was 5.7 nM and the EC50 [23] was 0.2 nM. For the same binder, the EC50 [2] was 0.12 nM, the binding result [3] was “no binding” and the Kd (human PD1-ECD [24]) was 0.8 nM. For the same binder, the koff (human PD1-ECD [24]) was 0.000307 s⁻¹, the kon (human PD1-ECD [24]) was 386000 M⁻¹ s⁻¹ and the binding result [25] was “no binding (tested: about 20 nM)”. It also gave a Kd (human PD1-ECD [26]) of 2 nM, an IC50 [27] of 1.35 nM and a Kd (human PD1-ECD [28]) of 0.8 nM.
